For one molecule, Kd results are on record in PMC3950679.

One data set deals with T1, Cid1 D160A (Schizosaccharomyces pombe, UniProt O13833 40-377, D160A).
T1 sequence: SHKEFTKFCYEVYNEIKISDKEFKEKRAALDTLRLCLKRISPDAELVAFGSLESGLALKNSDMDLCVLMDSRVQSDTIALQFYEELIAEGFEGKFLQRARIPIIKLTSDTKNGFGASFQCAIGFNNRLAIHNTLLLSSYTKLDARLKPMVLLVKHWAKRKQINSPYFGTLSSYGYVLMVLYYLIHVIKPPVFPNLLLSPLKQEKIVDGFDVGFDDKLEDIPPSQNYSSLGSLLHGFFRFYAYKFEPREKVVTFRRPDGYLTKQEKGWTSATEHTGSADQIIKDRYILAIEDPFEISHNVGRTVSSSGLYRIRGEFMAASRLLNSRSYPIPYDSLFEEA
The data set is described as follows: EMSA.

The next data set addresses T2, Cid1 WT (Schizosaccharomyces pombe, UniProt O13833 40-377).
T2 sequence: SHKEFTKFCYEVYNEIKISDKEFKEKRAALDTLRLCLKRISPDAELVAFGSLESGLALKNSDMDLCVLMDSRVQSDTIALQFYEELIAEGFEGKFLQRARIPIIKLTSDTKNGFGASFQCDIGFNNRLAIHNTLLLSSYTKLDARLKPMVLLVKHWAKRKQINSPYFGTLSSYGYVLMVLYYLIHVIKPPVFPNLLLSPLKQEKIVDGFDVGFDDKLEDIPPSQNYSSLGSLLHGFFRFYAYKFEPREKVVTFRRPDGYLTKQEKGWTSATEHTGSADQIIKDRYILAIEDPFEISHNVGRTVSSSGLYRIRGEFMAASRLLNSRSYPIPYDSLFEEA
As to the kind of experiment: EMSA.

Usually Kd stands for the constant that tells how readily two partners part at equilibrium. Read a high Kd as a looser complex. With UUUUUUUUUUUUUUU (ssRNA) [U15], the Kd with Cid1 D160A and with Cid1 WT was roughly 1000 nM each time.
